Blank lines part the entries; values can stand above or below the binder they belong to.
How the values were obtained:
Test in all cases: two-hybrid library CCNG1;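 note: natural log of median RNA to DNA barcode read ratio; higher means stronger binding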
P6A-bS = target: T1, P6A-bS
T1 chain: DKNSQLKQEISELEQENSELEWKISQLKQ

P9A-bS = target: T2, P9A-bS
T2 chain: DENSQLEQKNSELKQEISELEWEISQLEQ

P4A-bS = target: T3, P4A-bS
T3 chain: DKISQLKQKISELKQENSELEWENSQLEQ

P5A-bS = target: T4, P5A-bS
T4 chain: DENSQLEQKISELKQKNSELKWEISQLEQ

P8A-bS = target: T5, P8A-bS
T5 chain: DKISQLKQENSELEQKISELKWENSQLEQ

P7A-bS = target: T6, P7A-bS
T6 chain: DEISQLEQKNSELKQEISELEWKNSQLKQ

4H3185-bA = target: T7, 4H3185-bA
T7 chain: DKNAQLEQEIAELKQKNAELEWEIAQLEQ

4H3843-bA = target: T8, 4H3843-bA
T8 chain: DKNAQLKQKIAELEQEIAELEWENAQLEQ

4H568-bA = target: T9, 4H568-bA
T9 chain: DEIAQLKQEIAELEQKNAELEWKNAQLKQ

4H2697-bA = target: T10, 4H2697-bA
T10 chain: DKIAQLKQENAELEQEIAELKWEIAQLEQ

4H918-bA = target: T11, 4H918-bA
T11 chain: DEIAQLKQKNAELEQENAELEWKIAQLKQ

4H2729-bA = target: T12, 4H2729-bA
T12 chain: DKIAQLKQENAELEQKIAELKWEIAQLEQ

4H4001-bA = target: T13, 4H4001-bA
T13 chain: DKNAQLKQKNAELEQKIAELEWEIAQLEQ

4H754-bA = target: T14, 4H754-bA
T14 chain: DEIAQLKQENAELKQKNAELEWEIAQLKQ

4H3855-bA = target: T15, 4H3855-bA
T15 chain: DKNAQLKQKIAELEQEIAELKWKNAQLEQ

4H883-bA = target: T16, 4H883-bA
T16 chain: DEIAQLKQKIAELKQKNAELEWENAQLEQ

4H3354-bA = target: T17, 4H3354-bA
T17 chain: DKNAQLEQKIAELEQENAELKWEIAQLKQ

4H2667-bA = target: T18, 4H2667-bA
T18 chain: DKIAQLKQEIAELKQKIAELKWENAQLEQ

4H3112-bA = target: T19, 4H3112-bA
T19 chain: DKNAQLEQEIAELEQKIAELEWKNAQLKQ

4H72-bA = target: T20, 4H72-bA
T20 chain: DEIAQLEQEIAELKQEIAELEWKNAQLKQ

4H908-bA = target: T21, 4H908-bA
T21 chain: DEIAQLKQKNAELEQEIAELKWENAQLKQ

4H338-bA = target: T22, 4H338-bA
T22 chain: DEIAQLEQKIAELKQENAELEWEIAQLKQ

4H607-bA = target: T23, 4H607-bA
T23 chain: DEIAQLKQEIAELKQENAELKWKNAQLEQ

4H687-bA = target: T24, 4H687-bA
T24 chain: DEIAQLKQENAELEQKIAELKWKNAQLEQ

4H462-bA = target: T25, 4H462-bA
T25 chain: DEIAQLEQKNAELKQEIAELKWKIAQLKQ

4H3189-bA = target: T26, 4H3189-bA
T26 chain: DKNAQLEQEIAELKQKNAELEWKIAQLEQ

4H331-bA = target: T27, 4H331-bA
T27 chain: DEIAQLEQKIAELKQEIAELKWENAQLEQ

4H3926-bH = target: T28, 4H3926-bH
T28 chain: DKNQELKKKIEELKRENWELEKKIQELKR

4H3606-bA = target: T29, 4H3606-bA
T29 chain: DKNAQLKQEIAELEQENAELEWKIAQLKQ

4H3297-bA = target: T30, 4H3297-bA
T30 chain: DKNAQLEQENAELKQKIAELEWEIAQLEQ

4H717-bA = target: T31, 4H717-bA
T31 chain: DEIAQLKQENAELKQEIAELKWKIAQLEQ

4H370-bA = target: T32, 4H370-bA
T32 chain: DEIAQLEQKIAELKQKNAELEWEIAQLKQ

4H967-bA = target: T33, 4H967-bA
T33 chain: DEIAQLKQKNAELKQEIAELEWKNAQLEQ

4H454-bA = target: T34, 4H454-bA
T34 chain: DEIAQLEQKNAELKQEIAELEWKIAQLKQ

4H3782-bA = target: T35, 4H3782-bA
T35 chain: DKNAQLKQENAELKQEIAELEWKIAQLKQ

4H953-bA = target: T36, 4H953-bA
T36 chain: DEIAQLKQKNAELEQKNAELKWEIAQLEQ

4H797-bA = target: T37, 4H797-bA
T37 chain: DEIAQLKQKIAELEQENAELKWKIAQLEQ

4H3427-bA = target: T38, 4H3427-bA
T38 chain: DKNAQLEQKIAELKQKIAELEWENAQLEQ

- interaction score (P6A-bS): -1.51
- interaction score (P9A-bS): -2
- interaction score (P4A-bS): -1.08
- interaction score (P5A-bS): -0.436
- interaction score (P8A-bS): -0.866
- interaction score (P7A-bS): -0.905
Binder: DKISQLKQKISELKQENSELEWENSQLEQ [P4A-bS]

- interaction score (4H3185-bA): -0.669
- interaction score (4H3843-bA): 1.49
- interaction score (4H568-bA): 0.688
- interaction score (4H2697-bA): 0.478
- interaction score (4H918-bA): -1.68
- interaction score (4H2729-bA): 0.719
- interaction score (P4A-bS): -1.72
- interaction score (4H4001-bA): 1.02
- interaction score (4H754-bA): -1.06
- interaction score (4H3855-bA): -0.565
- interaction score (4H883-bA): -0.985
- interaction score (4H3354-bA): -0.643
- interaction score (4H2667-bA): 0.263
- interaction score (4H3112-bA): 0.96
- interaction score (4H72-bA): 0.976
- interaction score (4H908-bA): -0.691
- interaction score (4H338-bA): 0.164
- interaction score (4H607-bA): -1.24
- interaction score (4H687-bA): -1.37
- interaction score (4H462-bA): -0.172
- interaction score (4H3189-bA): -0.909
- interaction score (4H331-bA): 0.846
- interaction score (4H3926-bH): -1.75
- interaction score (4H3606-bA): 0.0163
- interaction score (4H3297-bA): 0.0617
- interaction score (4H717-bA): -1.61
- interaction score (4H370-bA): -0.0583
- interaction score (4H967-bA): -1.08
- interaction score (4H454-bA): 1.25
- interaction score (4H3782-bA): -0.43
- interaction score (4H953-bA): -0.966
- interaction score (4H797-bA): -1.09
- interaction score (4H3427-bA): 0.719
Binder: DKIAQLKQEIAELKQKIAELKWENAQLEQ [4H2667-bA]
